The nature of this data set: yeast display, Sf9 membrane polyspecificity reagent, FACS + sequencing; frameworks hold sequencing errors. The method, boiled down:
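A synthetic nanobody library was expressed on Saccharomyces cerevisiae BJ5465 by galactose induction for 36–48 hours. The library was stained for 1 hour at 4 °C with 10% biotinylated, detergent-solubilized Sf9 membrane reagent and enriched with streptavidin microbeads before FACS. Low and high (top ~1%) gates were set on anti-HA fluorescence for expression and streptavidin fluorescence for reagent binding, and each polyreactivity label reflects the gate of origin.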
On to “QVQLQESGGGLVQAGGSLLSCAASGTISWVDEMGWYRQAPGNERELVAGIAGGGNTNYADSVKGRFTISRDNAKNTVYLKMNSLDTAVYYCAVVGFGRGTHIYWGQGTQVTVSS”, for which the “polyreactivity (PSR sort gate)” value is “high polyreactivity”.

Regarding “QVHLVESGGGLVQAGGSLRLSCAASGRIFTRNAMVWYRQAPGKERELVAAISHSGGSTYADSVKGRFTISRDNAKNTVYLQMNSLKPEDTAVYYCAAKYYFEWNSALDYWGQGTQVTVSS”, the “polyreactivity (PSR sort gate)” value is “low polyreactivity”.

With “EEELVESGVGLVQAGGSLRLSCAASGRTFARNAMGWYRQAPGKERELVAGINFSGGNTYYADSVKGRFTISRDNAKNTVYLQMNSLKPEDTAVYYCAARRYWEGDYWGQGTQVTVSS”, the “polyreactivity (PSR sort gate)” value is “low polyreactivity”.

Turning to “QVQLVESGGGLVQAGGSLRLSCAASGITFNPYVMGWYRQAPGKERELVAVITSGGSTNYADSVKGRFTISRDNAKITVYLEMNSLKPEDTAVYYCNVDRRPYYVWRVTYDYWGQGTQVTVSS”, the “polyreactivity (PSR sort gate)” value was “low polyreactivity”.

As for “QVQLVESVGGLVQAGGSLRLSCAASGNIFYSYDMGWYRQAPGKERELVATISYRGTSTNYADSVKGRFTISRDNAKNTVYLQMNSLKPEDTAVYYCASDRGSHFARGSAYDYWGQGTQVTVSS”, the “polyreactivity (PSR sort gate)” value is on record as “low polyreactivity”.

With “QVQIVESGGGLFQAGGSLRLSCAASGLIFYSYAMGWYRQAPWKERELVAAISSGGGSTYYADSVKGRFTISRDNAKNTVYLQLNSLKPEDTAVYYCNRLYKYRTPDYDHWGQGTQVTVSS”, the “polyreactivity (PSR sort gate)” value is given as “high polyreactivity”.

As for “QVQLVESGGGLVQAGGSVRLSCAASGFTFWRYAMGWYRQAPGKEREFVAAITRSGVSTSNADSVKGRFTISRDNAKNTVYLQMNSLKPEDTAVYYCAALFYTSVPYPDYDYWGQGTQVTVSS”, the “polyreactivity (PSR sort gate)” value is “high polyreactivity”.

As for “QVQLVESGGGLVQAGGSLRLSCAASVRNYGINVMVWYRQAPGKERELVAAISYRTGSTYYADSVKGRFTISRDNAKNTVYLQMNSLKPEDTAVYYCDALRSIRTAWYDYWGQGTQVTVSS”, the “polyreactivity (PSR sort gate)” value was “high polyreactivity”.

With “QVQLVESGGGLVQAGGSLRLSCAASGLIFYSYTMGWYRQAPGKERELVAVISRSGTSTYYADSVKGRFTISRDNAKNTVYLQMNSLKPEDTAVYYCAALTRSGPYAYEYWGQGTQVTVSS”, the “polyreactivity (PSR sort gate)” value is recorded as “high polyreactivity”.

“QVQLVESGGGLVQAGGSLRLSCAASGFTFITYAMGGHRQAPGKERELVAAIRTGGGTNYADSVKGRFTISRDNAKNTVYLQMNSLKPEDTAVYYCAKGRQGVSYLTGTYGCRYYWGQGTQVTVSS”: the “polyreactivity (PSR sort gate)” value is reported as “low polyreactivity”.

Turning to “QVQLVESGGGLVQAGGSLRLSCAASGHILFKYTMGWYRQAPGKERELVAAISRSGGTTYYADSVKGRFTISRDNAKNTVYLQMNSLKPEDTAVYYCAARVTPGRNGGGYWGQGTQVTVSS”, the “polyreactivity (PSR sort gate)” value is listed as “high polyreactivity”.

Regarding “QVQHVETGGGLVQAGGSLRLSCAASGFIFTRYVMGWSRQAPGKERELVAAISRIGASTYYADSVKGRFSISRDNAKNPVYLQMNSLKPEDTAVYYCNVVSGGYFEYEYCGQGTQVTVSS”, the “polyreactivity (PSR sort gate)” value is recorded as “high polyreactivity”.

On to “QVQLVESGGGLVQAGGSLRLSCAASGFIFDSYAMGWYRQAPGKERELVAAISWSGSSTYYADSVKGRFTISRDNAKNTVYLQMNSLKPEDTAVYYCAALVYPYWGCSMYYWGQGTQVTVSS”, for which the “polyreactivity (PSR sort gate)” value is “high polyreactivity”.

Take “QVQLVESGGALVQAGGSLRLSCAASGRTFWRNTMGWYRQAPGKEREFVAAITFSGVRTYYADSVKGRFTISRDNAKNTVYLQMNSLKPQDTAVYYCAKSRQYIGGFDYWGQGTQVTVSS”: the “polyreactivity (PSR sort gate)” value is “high polyreactivity”.

On to “QVQLVESGGGLVQAGGSLRLSCAASGFIFVFYDMGWYRQAPGKERELVAGITRNDGSTYYADSVKGRFKISRDNAKNTVYLQMNSLKPEDTAVYYCAAESAGSYLDYYWAYGYWGQGTQVTVSS”, for which the “polyreactivity (PSR sort gate)” value is given as “low polyreactivity”.

Take “QVQLVESGGGLVQAGGSLRLSCAASGRIFPLYAMGWYRQAPGKERELVAAITWRAGITYYADSVKGRFTISRDNAKNTVYLQMNSLKPEDTAVYYCAARFVRGRGFAYGYWGQGTQVTVSS”: the “polyreactivity (PSR sort gate)” value is “high polyreactivity”.

“QVQLQESGRGLVQAGGSLRLSCAASGTISSRWGKGWYLQAPGKERELFASNDQGASTYYADSVKGRFTISRDNAKNTVYLQMNSLKPEDTEVYYCIAVPSSAGDYWGQGTQVTVSS”: the “polyreactivity (PSR sort gate)” value is recorded as “low polyreactivity”.

On to “QDQLVESGGGLVQAGVSLRLSCAASGIISSDNAMGWYRQAPGKERELVAAITVSGGSTYYADSVKRRFTISRDNAKNTVYFQMNSLKPEDTAVYYCAADYSLEYGFDYWGQGTQVSVSS”, for which the “polyreactivity (PSR sort gate)” value is recorded as “low polyreactivity”.

Take “QDQLVESGGGLVQAGGSLRLSCAASGSIFVNYAMGWYRQAPGKERELVAAISRSGGRTYYADSVKGRFTISRDSAKITVYLQMNSLIPEDTAVYYCNVDPVLRTIEGDYWGQGTQVTVSS”: the “polyreactivity (PSR sort gate)” value is given as “high polyreactivity”.

For “QVQLVESGGGLVQAGGSLRLSCAASGSNFQNYAMGLYIQAPGKERELVAAISSSGTGTSYADSVKGRFTISRDNAKNTVYLQMNSLKPEDTAVYYCAADYLDYADSAYYYWGQCTQVTVSS”, the “polyreactivity (PSR sort gate)” value is “low polyreactivity”.

Regarding “QVQRVESGGGLVQAGGSLRLSCAASGFTLDPYAMGWYRQAPGKEREFVAAIRLSGSSTYYADSVKGRFTISRDNAKNTVYLQMNSLKPEDTAVYYCAADGISHWLYRYDYWGQGTQVTVSS”, the “polyreactivity (PSR sort gate)” value is reported as “low polyreactivity”.

Regarding “QVQLVESGGGLVQAGGSLRLSCAASGRIFARYTMGWYRQAPGKEREFVAGIRSSGGRTYYADSVKGRFTISRDNAKNTVYLQMNSLKPEDTAVYYCKAGGSWYFARYDYWGQGTLVTVSS”, the “polyreactivity (PSR sort gate)” value is given as “low polyreactivity”.

With “QVQLVESGGGLVQAGGSLRLSCAASGFIFLVYAMGWYRQAPGKERELVAAISASGGRTYYADSVKGRFTISRDNAKNTVYLQMNSLKPEYTAVYYCARLLPTPGKPILDYWGQGTQVTVSS”, the “polyreactivity (PSR sort gate)” value is recorded as “low polyreactivity”.

As to “QVQLVESGGGFVQAGGSLRLSCAASGINVSHYTMGWYRQAPGKERELVAGISRSGGSTYYADSVKGRFTISRDNAKNTVYLQMNSLKPDDTAVYYCAADGYGFVSPRGYNYWGQGTQVTVSS”, the “polyreactivity (PSR sort gate)” value was “high polyreactivity”.

As for “QVQLVESGGGLVQAGGSLRLSCAASGIIYNPNAMGWYRQAPGKERELVAVISISDSTNYADSVKGRFTISRDNAKNTVYLQMNSLKPEDTAVYDCATASAGTLSVTYYHWYDDWGQGTQVTVSS”, the “polyreactivity (PSR sort gate)” value is reported as “low polyreactivity”.

On to “QVQLVESGGGLVQAGGSLRLSCAASGFILSRYTMGWYRQAPGKERELVATISSGGRTYYADSVKGRFTISRDNAKNTVYLQMNSLKPEDTAVYYCAAAYTYWRISGNRYLYDYWGQGTQVTVSS”, for which the “polyreactivity (PSR sort gate)” value is on record as “high polyreactivity”.

For the sequence “QVQLVESGGGIVQAGGSLRLSCAASGITIYKYAMGWYRQAPGKERELLAAITRGGSTYYADSVKGRFTISRDNAKNTVYLQMNSLNPEDTAVYYCNKVYHWQTPGFGYGYWGQGTQVTVSS”, the “polyreactivity (PSR sort gate)” value is reported as “high polyreactivity”.

Take “QVQLVESGGGLVQAGGSLRLSCAASGFIFLVNAMGWYRRGPGTERELVAAISKSTGGTYYADSVKGRFTISRDNAKNTVYLQMNSLKPEDTAVYYCAADEVYPVQRDMDYWGQGTQVTVSS”: the “polyreactivity (PSR sort gate)” value was “low polyreactivity”.

Turning to “QVQLVESGGGLVQAGGSLRLSCAASGLTFAFYAMGWYRQAPGKEREFVAAITTGGSTYYADSVKGRFTISRDNAKNTVYLQMNSLKPEDTAVYYCAADLYRRRGQFDYWGQGTQVTVSS”, the “polyreactivity (PSR sort gate)” value is listed as “high polyreactivity”.

In the case of “QVQLVESGGGLVQAGGSLRLSCAASGSTFRYYAMGWYRQAPGKERELVAAITRSGSTYYADSVKGRFTISRDNAKNTVYLQMNSLKREDTAVYYCNADQYYGGRYVYLRHYNYWGQGTQVTVSS”, the “polyreactivity (PSR sort gate)” value is on record as “high polyreactivity”.

Regarding “QVQLVESGGGLVQAGGSLRLSCAASGYTFPYYAMGWYIQAPGKERELVAAISRSGGTTYYADSVKGRFTISRDNAKNTVYLQLNSLKPEDTAVYYCAALYGSRSTYHMDDYWGQGTQVTVSS”, the “polyreactivity (PSR sort gate)” value is given as “high polyreactivity”.

Turning to “QVQLVESGGGFVQAGVSLRLSCAASGSIYYNAMGWYIQAPGKERELVAGITSSGGSTYYADSVKGRFTISRDNAKNTVYLQMISLKPEDTAVYFCAADFVYLCTLFGAYDYCGQGTQVTVSS”, the “polyreactivity (PSR sort gate)” value is “low polyreactivity”.

Turning to “QVQLVESGGGLVQAGGSLRLSCAASGRIFAYYVMGWYRQAPGKERELVASISSGGGTYYADSVKGRFTISRDNAKNTVYLQMNSLKPEDTAVYYCAARWRRYVYPDGHLFWYDYWGQGTQVTVSS”, the “polyreactivity (PSR sort gate)” value is “high polyreactivity”.

Regarding “QVQLVESGGGLVQAGGSLRLSCAASGFTCKYYTMGWYRQAPGKERELVAAISKSGDITYYADSVKGRFTISRDNAKNTVYLQMNSMKPEDTAVYYCAVVPSSTYHAYDYWGQGTQVTVSS”, the “polyreactivity (PSR sort gate)” value is reported as “high polyreactivity”.

On to “QVQLVESGGGLVQAGGSLRLSCAASGIIFVRYAMGWYRQAPGKERELVAAISSGGGSTYYADSVKGRFTISRDNAKNTVYLQMNSLKPEDTAVYYCATVVYPYSPRYDYWGQGTQVTVSS”, for which the “polyreactivity (PSR sort gate)” value was “high polyreactivity”.

As for “QVQLVESGGGLVQAGGSLRLSCAASGRTFTRYARGWYRQAPGKERELVAVISWSVGSTYYADSVKGRFTISRDNAKNTVYLQMNSLKPEDTAVYYCNSDVLSWSQEYDYWGQGTQVTVSS”, the “polyreactivity (PSR sort gate)” value was “low polyreactivity”.

Take “QVQLVESGGCLVQAGGSLRLSCAASGLTIAYYAMGWYRQAPGKERDLVAAITSSGTSTYYADSVKGRFTISRDNAKNTVYLQMNSLKPEDTAVYYCNKYPYFVYGDYGYWGQGTQVTVSS”: the “polyreactivity (PSR sort gate)” value is “high polyreactivity”.

In the case of “QVQLVESGGCLVQAGGSLRLSCAPSGLTMHYYAMGWYRQAPATERELVAAITYSCGSTYYADSVKGRFTISLDNAKNTVYLQMNILKAEDTAVYYCAADTFPTTSEVDYWGQGTQVTVSS”, the “polyreactivity (PSR sort gate)” value was “low polyreactivity”.

As to “QVQLVESGGGLDQAGGSLRLSCAASGSTFSRYAMGWYRQPPGKERELVAAISWRGGSTYYADSVKGRFTISRDNAKNTVYLQMNSLKPEDTAVYYCNKAGFWFVVYKRQEYWGQGTQVTVSS”, the “polyreactivity (PSR sort gate)” value is “high polyreactivity”.

For “QLQLVESGGGLVQAGGSLRLSCAASGRTFGYNVMGWYRQAPGKERELVAAISSSGGSTYYADSVKGRFTISRDNAKNTVYLQMNSLKPEDTAVYYCAAQVRYYQSGPMYYWGQGTQVTVSS”, the “polyreactivity (PSR sort gate)” value is “high polyreactivity”.

With “QVQLVESGGGLVQAGGSLRLSCAASGSTFAVYAMGWYRQAPGKERELVAAITRSGGDTYYADSVKGRFTISRDNAKNTVYLQMNSLKPEDTAVYYCAAAPRYGEEYWGQGTQVTVSS”, the “polyreactivity (PSR sort gate)” value is given as “low polyreactivity”.

For the origin of these results see the nanobody polyreactivity screen of Harvey et al. (2022).
